Data as given in the supplement of paper PMC10567573.

B1: RPS21 (parent)
chain: AEVSWEPGRREGCDICAGKAGCPI
B2: RHOBTB3 (parent)
chain: DSCCPAGIFQAMCLLICAEMYQVS

Variants of: B1
Experiment: protein stability index of a GFP-peptide fusion (GPS, HEK-293T) (PSI 1-6); higher = more stable
Conditions: c terminus: a fixed tail appended
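Further: lentivirally expressed fusions sorted by FACS into six bins by GFP to DsRed ratio, PSI derived from sequencing read proportions per bin multiplied by bin number.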

Point of comparison: AEVSWEPGRREGCDICAGMAGCPI [K19M], protein stability index 2.48. Against it:
- AEVSWEPGRREGCDICYGKAGCPI [A17Y] — higher, 3.57
- AEVSWEPGRREGCDICLGKAGCPI [A17L] — lower, 2.01
- AEVSWEPGRREGCDICGGKAGCPI [A17G] — higher, 3.38
- AEVSWEPGRREGCDICAGWAGCPI [K19W] — lower, 1.28
- AEVSWEPGRREGCDICAGHAGCPI [K19H] — lower, 2.13
- AEVSWEPGRREGCDICAGIAGCPI [K19I] — higher, 3.79
- AEVSWEPGRREGCDICAGDAGCPI [K19D] — higher, 4.29
- AEVSWEPGRREGCDICAGYAGCPI [K19Y] — lower, 2.24
- AEVSWEPGRREGCDICAGTAGCPI [K19T] — higher, 2.62
- AEVSWEPGRREGCDICAGEAGCPI [K19E] — higher, 4.29
- AEVSWEPGRREGCDICAGLAGCPI [K19L] — lower, 2.3
- AEVSWEPGRREGCDICAGNAGCPI [K19N] — lower, 2
- AEVSWEPGRREGCDICAGGAGCPI [K19G] — higher, 3.99
- AEVSWEPGRREGCDICAGFAGCPI [K19F] — lower, 2.15
- AEVSWEPGRREGCDICAGQAGCPI [K19Q] — higher, 2.97

Variants of: B2
Experiment: as above
Conditions: c terminus: a fixed tail appended

Point of comparison: DSKCPAGIFQAMCLLICAEMYQVS [C3K], protein stability index 3.1. Against it:
- DSCCPAFIFQAMCLLICAEMYQVS [G7F] — lower, 2.49
- DSCCPAIIFQAMCLLICAEMYQVS [G7I] — higher, 3.28
- DSCCPAEIFQAMCLLICAEMYQVS [G7E] — lower, 1.72
- DSCCPANIFQAMCLLICAEMYQVS [G7N] — lower, 2.19
- DSCCPAHIFQAMCLLICAEMYQVS [G7H] — lower, 2.75
- DSCCPAYIFQAMCLLICAEMYQVS [G7Y] — lower, 2.8
- DTCCPAGIFQAMCLLICAEMYQVS [S2T] — higher, 3.94
- DKCCPAGIFQAMCLLICAEMYQVS [S2K] — higher, 4.66
- DICCPAGIFQAMCLLICAEMYQVS [S2I] — higher, 3.54
- DNCCPAGIFQAMCLLICAEMYQVS [S2N] — the same, 3.1
- DWCCPAGIFQAMCLLICAEMYQVS [S2W] — higher, 3.17
- DPCCPAGIFQAMCLLICAEMYQVS [S2P] — lower, 2.93
- DLCCPAGIFQAMCLLICAEMYQVS [S2L] — lower, 2.17
- DSCCPLGIFQAMCLLICAEMYQVS [A6L] — lower, 2
- DSCCPKGIFQAMCLLICAEMYQVS [A6K] — higher, 3.98
- DSCCPVGIFQAMCLLICAEMYQVS [A6V] — higher, 3.18
- DSCCPMGIFQAMCLLICAEMYQVS [A6M] — higher, 4.16
- DSCCPCGIFQAMCLLICAEMYQVS [A6C] — higher, 3.25
- DSCCPIGIFQAMCLLICAEMYQVS [A6I] — lower, 2.76
- DSCCPTGIFQAMCLLICAEMYQVS [A6T] — lower, 2.9
- DSCCPPGIFQAMCLLICAEMYQVS [A6P] — lower, 2.76
- DSCPPAGIFQAMCLLICAEMYQVS [C4P] — lower, 2.84
- DSCGPAGIFQAMCLLICAEMYQVS [C4G] — lower, 2.06
- DSCFPAGIFQAMCLLICAEMYQVS [C4F] — lower, 2.94
- DSCQPAGIFQAMCLLICAEMYQVS [C4Q] — lower, 2.56
- DSCHPAGIFQAMCLLICAEMYQVS [C4H] — higher, 4.64
- DSCMPAGIFQAMCLLICAEMYQVS [C4M] — higher, 4
- DSCVPAGIFQAMCLLICAEMYQVS [C4V] — lower, 2.88
- DSCTPAGIFQAMCLLICAEMYQVS [C4T] — lower, 2.08
- DSCCPAGIFQAMALLICAEMYQVS [C13A] — higher, 3.91
- DSCCPAGIFQAMQLLICAEMYQVS [C13Q] — higher, 4.88
- DSCCPAGIFQAMILLICAEMYQVS [C13I] — higher, 4.59
- DSCCPAGIFQAMNLLICAEMYQVS [C13N] — higher, 3.63
- DSCCPAGIFQAMPLLICAEMYQVS [C13P] — lower, 2.42
- DSCCPAGIFQAMWLLICAEMYQVS [C13W] — higher, 3.35
- DSCCPAGIFQAMYLLICAEMYQVS [C13Y] — lower, 2.77
- DSCCPAGIFQAMHLLICAEMYQVS [C13H] — lower, 2.4
- DSCCPAGIFQAQCLLICAEMYQVS [M12Q] — lower, 2.04
- DSCCPAGIFQAYCLLICAEMYQVS [M12Y] — lower, 2.9
- DSCCPAGIDQAMCLLICAEMYQVS [F9D] — lower, 1.51
- DSCCPAGIEQAMCLLICAEMYQVS [F9E] — higher, 4.01
- DSCCPAGIAQAMCLLICAEMYQVS [F9A] — lower, 2.97
- DSCCPAGIPQAMCLLICAEMYQVS [F9P] — lower, 1.51
- NSCCPAGIFQAMCLLICAEMYQVS [D1N] — higher, 3.73
- PSCCPAGIFQAMCLLICAEMYQVS [D1P] — lower, 1.89
- ESCCPAGIFQAMCLLICAEMYQVS [D1E] — lower, 2.3
- ASCCPAGIFQAMCLLICAEMYQVS [D1A] — higher, 3.58
- MSCCPAGIFQAMCLLICAEMYQVS [D1M] — higher, 3.85
- RSCCPAGIFQAMCLLICAEMYQVS [D1R] — lower, 2.64
- ISCCPAGIFQAMCLLICAEMYQVS [D1I] — lower, 2.69
- TSCCPAGIFQAMCLLICAEMYQVS [D1T] — higher, 3.52
- SSCCPAGIFQAMCLLICAEMYQVS [D1S] — lower, 2.77
- DSCCPAGPFQAMCLLICAEMYQVS [I8P] — lower, 1.68
- DSCCPAGEFQAMCLLICAEMYQVS [I8E] — lower, 1.48
- DSCCPAGRFQAMCLLICAEMYQVS [I8R] — lower, 2.55
- DSCCPAGMFQAMCLLICAEMYQVS [I8M] — lower, 1.95
- DSCCPAGVFQAMCLLICAEMYQVS [I8V] — higher, 3.73
- DSHCPAGIFQAMCLLICAEMYQVS [C3H] — lower, 1.02
- DSTCPAGIFQAMCLLICAEMYQVS [C3T] — lower, 1.39
- DSPCPAGIFQAMCLLICAEMYQVS [C3P] — lower, 2.93
- DSSCPAGIFQAMCLLICAEMYQVS [C3S] — the same, 3.1
- DSACPAGIFQAMCLLICAEMYQVS [C3A] — higher, 3.18
- DSRCPAGIFQAMCLLICAEMYQVS [C3R] — lower, 2.33
- DSCCPAGIFQIMCLLICAEMYQVS [A11I] — lower, 2.4
- DSCCPAGIFQCMCLLICAEMYQVS [A11C] — lower, 2.69
- DSCCPAGIFQKMCLLICAEMYQVS [A11K] — lower, 1.32
- DSCCPAGIFQYMCLLICAEMYQVS [A11Y] — higher, 3.96
- DSCCHAGIFQAMCLLICAEMYQVS [P5H] — higher, 3.17
- DSCCIAGIFQAMCLLICAEMYQVS [P5I] — lower, 2.61
- DSCCAAGIFQAMCLLICAEMYQVS [P5A] — lower, 1.65
- DSCCLAGIFQAMCLLICAEMYQVS [P5L] — lower, 2.87
- DSCCNAGIFQAMCLLICAEMYQVS [P5N] — lower, 3.01
- DSCCKAGIFQAMCLLICAEMYQVS [P5K] — lower, 2.16
- DSCCPAGIFNAMCLLICAEMYQVS [Q10N] — lower, 2.37
- DSCCPAGIFDAMCLLICAEMYQVS [Q10D] — lower, 2.75
- DSCCPAGIFPAMCLLICAEMYQVS [Q10P] — lower, 2.72
- DSCCPAGIFKAMCLLICAEMYQVS [Q10K] — lower, 3.05
